{"source": "patent US20230056815A1", "experiment_in_all_cases": "cell-based or functional assay", "key": {"[1]": {"target": "cynomolgus monkey soluble FLT3L (cynomolgus monkey)"}, "[2]": {"target": "human soluble FLT3L (recombinant huFLT3L) (human) (UniProt P49771)", "sequence (P49771 27-184)": "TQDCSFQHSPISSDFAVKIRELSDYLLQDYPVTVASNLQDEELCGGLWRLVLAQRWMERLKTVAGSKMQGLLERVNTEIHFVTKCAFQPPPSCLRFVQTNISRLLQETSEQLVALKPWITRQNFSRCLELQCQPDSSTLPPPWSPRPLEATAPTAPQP"}, "[3]": {"target": "mouse soluble FLT3L (mouse) (UniProt P49772)", "sequence (P49772 27-189)": "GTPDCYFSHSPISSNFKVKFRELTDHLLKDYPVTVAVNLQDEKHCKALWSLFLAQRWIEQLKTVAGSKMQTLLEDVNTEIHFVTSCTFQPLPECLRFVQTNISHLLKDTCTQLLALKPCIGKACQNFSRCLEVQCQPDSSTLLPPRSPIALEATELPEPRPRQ"}}}
{"substance": "commercially available mouse anti-human FLT3L monoclonal antibody (MAB608, R&D Systems)", "values": [{"measurement": "IC50 (nM), inhibition of FLT3 downregulation on RS4;11 cells", "setting": "[1]", "result": 0.1, "unit": "nM"}, {"measurement": "IC50 (nM) against 0.476 nM FLT3L, ERK phosphorylation in CD133+ stem cells", "setting": "[2]", "result": 0.19, "unit": "nM"}, {"measurement": "IC50 (nM) against 0.476 nM FLT3L, MEK phosphorylation in CD133+ stem cells", "setting": "[2]", "result": 0.19, "unit": "nM"}, {"measurement": "IC50 (nM), inhibition of FLT3 downregulation on RS4;11 cells", "setting": "[2]", "result": 0.04, "unit": "nM"}, {"measurement": "IC50 (nM), inhibition of FLT3 downregulation on RS4;11 cells", "setting": "[3]", "result": 0.12, "unit": "nM"}]}
